Experimental data published in article PMC314469, “Protein Interaction Networks by Proteome Peptide Scanning” (PLoS Biology, 2004).

T1: GST-Abp1 SH3 domain (S. cerevisiae), P15891
T1 chain: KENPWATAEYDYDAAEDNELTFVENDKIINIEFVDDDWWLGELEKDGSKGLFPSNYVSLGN

T2: RVS167 SH3 domain (Saccharomyces cerevisiae)
T2 chain: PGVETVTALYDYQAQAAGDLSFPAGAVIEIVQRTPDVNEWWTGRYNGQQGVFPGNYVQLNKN

T3: BOI2 SH3 domain (Saccharomyces cerevisiae)
T3 chain: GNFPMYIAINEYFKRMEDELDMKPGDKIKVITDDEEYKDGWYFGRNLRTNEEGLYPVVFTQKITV

T4: YSC84 SH3 domain (Saccharomyces cerevisiae)
T4 chain: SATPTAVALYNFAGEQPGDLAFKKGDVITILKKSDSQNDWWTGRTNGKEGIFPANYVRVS

T5: YFR024C SH3 domain (Saccharomyces cerevisiae)
T5 chain: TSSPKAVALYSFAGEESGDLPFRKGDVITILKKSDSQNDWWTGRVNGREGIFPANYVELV


How the values were obtained:
Experiment in all cases: SPR
Conditions in all cases: modification not given
[1] = target: T1, GST-Abp1 SH3 domain (S. cerevisiae), …
[2] = target: T2, RVS167 SH3 domain (Saccharomyces …)
[3] = target: T3, BOI2 SH3 domain (Saccharomyces …)
[4] = target: T4, YSC84 SH3 domain (Saccharomyces …)
[5] = target: T5, YFR024C SH3 domain (Saccharomyces …)

Binder	Kd [1]	Kd [2]	Kd [3]	Kd [4]	Kd [5]
ASTKPEKPPVVKKP [INP52 peptide …]	> 100 µM	–	–	–	–
RPLPQLPNRNNRPV	> 100 µM	–	> 100 µM	9.6 µM	8.9 µM

Continued, values first:

Kd [1]	Kd [2]	Kd [3]	Kd [4]	Kd [5]	Binder
–	32 µM	> 100 µM	–	–	PQQNRPLPQLPNRN
–	39 µM	> 100 µM	13 µM	–	RAVPILPPRNNVEP [YBR108W peptide …]
–	> 100 µM	> 100 µM	> 100 µM	> 100 µM	DIKTRSVPKIPSIE [DEM1 peptide …]
> 100 µM	39 µM	> 100 µM	16 µM	22 µM	NQPDLPPRKIMIP [YBR239C peptide …]
